Measured values published in patent US5942405A, “Therapeutic and screening methods using C3a receptor and C3a” (priority 1997, dated 1999).

T1: C3a Receptor (Homo sapiens, UniProt Q16581)
T1 sequence (Q16581 1-482 F151C): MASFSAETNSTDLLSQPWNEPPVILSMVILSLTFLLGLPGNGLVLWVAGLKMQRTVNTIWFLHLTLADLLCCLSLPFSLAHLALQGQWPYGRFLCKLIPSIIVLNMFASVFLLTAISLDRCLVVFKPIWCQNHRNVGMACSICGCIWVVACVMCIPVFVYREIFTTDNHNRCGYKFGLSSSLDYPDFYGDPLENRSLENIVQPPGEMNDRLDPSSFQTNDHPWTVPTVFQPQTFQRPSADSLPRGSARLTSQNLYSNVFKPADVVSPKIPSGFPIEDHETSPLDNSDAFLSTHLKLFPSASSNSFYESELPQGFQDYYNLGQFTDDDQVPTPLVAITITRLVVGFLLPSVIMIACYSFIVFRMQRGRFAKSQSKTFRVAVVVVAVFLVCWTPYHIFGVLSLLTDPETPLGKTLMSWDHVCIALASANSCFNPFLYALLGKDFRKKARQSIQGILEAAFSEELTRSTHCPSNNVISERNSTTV

B1: rC5a: Human rC5a was expressed in E. coli and purified to homogeneity (protein, UniProt P01031 678-751, looked up)
C5a anaphylatoxin: TLQKKIEEIAAKYKHSVVKKCCYDGACVNNDETCEQRAARISLGPRCIKAFTECCVVASQLRANISHKDMQLGR
modifications: C5a anaphylatoxin recombinant, E. coli
notes: Human rC5a was expressed in E. coli and purified to homogeneity

Biological target: T1, C3a Receptor
Assay: Calcium mobilization by Fura 2 loaded RBL-2H3 cells stably expressing C3a Receptor
Assay type: cell-based
Parameters: cDNA encoding a complete orphan GPCR of 482 amino acids; expressed in transfected cells
Conditions: for EC50: Fura 2 loaded RBL-2H3 cells expressing C3a Receptor, read-out: EC50, mobilization of intracellular Ca2+; for mobilization of intracellular Ca2+ (response in words): RBL-2H3 cells expressing C3a Receptor, Fig. 4: rC5a 100 nM, C3a analogue peptide 1 uM
Method: (A) Electrophysiological response of Xenopus oocytes injected with cRNA for C3a Receptor (10 ng), total U937 RNA (25 ng), or a mixture of C3a Receptor (10 ng) and U937 RNA (25 ng) to 10 nM rC5a, 10 nM C3a analogue peptide, 10 nM platelet activating factor (PAF), 10 nM fMetLeuPhe. Inset, represents typical response of oocytes co-injected with C3a Receptor cRNA+U937 RNA to 10 nM C3a. (B) Electrophysiological response of oocytes injected with C5a-R cRNA (10 ng), U937 RNA (25 ng) or a mixture of C5a-R and U937 RNA, to 10 nM rC5a or 10 nM C3a analogue peptide. […] Calcium mobilization by Fura 2 loaded cells expressing C5a receptor (FIGS. 4A & 4C) or C3a Receptor (FIGS. 4B & 4D) in response to rC5a (10 nM, FIG. 4A or 100 nM, FIG. 4B) or C3a analogue peptide (1 uM, FIGS. 4C & 4D).
To prepare C3a Receptor for expression in mammalian cells, a 1.6 kb cDNA fragment was obtained by PCR amplification that encompassed the entire C3a Receptor open reading frame. This fragment was subcloned into KpnI/Hind III sites of the mammalian expression vector, pCDN (Aiyar, N., et al (1994) Mol. Cell. Bio. 131, 75-86). Oligonucleotide primers used for PCR amplification were 5'-GA AGT GGT ACC ATG GCG TC-3' (SEQ ID NO:4) and 5'-GC TCCAAGCTTTCACACAGTTG-3' (SEQ ID NO:5) (the translation start and stop codons are underlined). RBL-2H3 cells were electroporated with either C3a Receptor or C5a-R in the pCDN mamalian expression vector (Aiyar, N., et al (1994) Mol. Cell. Bio. 131, 75-86), exactly as described (DeMartino, J. A., et al (1994) J. Biol Chem. 269, 14446-14450). Individual G418 resistant (400 μg/ml) colonies were isolated and expanded. Clonal cell lines expressing either C3a Receptor or C5a-R were chosen for further functional and binding studies.
RBL-2H3 cells (Siraganian, R. P., et al (1982) Fed. Proc. 41, 30-34), a rat basophil cell line, when transfected with an expression plasmid encoding the C5a-R express receptors that are functionally active (DeMartino, J. A., et al (1994) J. Biol. Chem. 269, 14446-14450). RBL-2H3 cells were stably transfected with mammalian expression plasmids encoding the C5a-R or C3a Receptor and Fura 2 loaded cells were tested for a C5a or C3a induced mobilization of intracellular Ca^2+.
Fura 2 loaded clonal cell lines expressing C5a-R or C3a Receptor were assayed for functional response, Ca^2+ mobilization, as described (Saussy, D. L. Jr., et al (1989) J. Biol. Chem. 264, 19845-19855).

Row | Molecule | EC50 [nM] | mobilization of intracellular Ca2+ (response in words) | mobilization of intracellular Ca2+ (response in words) (listed as native human C3a) | mobilization of intracellular Ca2+ (response in words) (listed as C3a synthetic peptide)
1 | C3a: C3a was purchased from Advanced Research Technologies, San Diego; anaphylatoxin; radioiodinated for binding | 0.3 | bind and respond | responded | –
2 | WWGKKYRASKLGLAR [C3a analogue synthetic peptide, reference compound] | 3.9 | respond | – | robust response
3 | B1 | – | not C3a Receptor expressing cells responded | – | –
